{"source": "patent US20240261333A1", "about": "(published 2024)", "experiment_in_all_cases": "co-IP, anti-FLAG, N-FLAG B3GNT2 cell lysate, mass spectrometry", "key": {"[1]": {"target": "RPL22 (UniProt P35268 2-128)", "description": "(§1) Cells were plated in 10-cm cell culture dishes and grown to 60-80% confluency. For each condition, two biological replicates were harvested for co-IP. Cells were washed with PBS and 4 mL of lysis buffer (20 mM HEPES, 1% Triton X-100, 150 mM NaCl, 1 mM EDTA, and 10% glycerol) containing protease inhibitor cocktail was added. Cells were scraped and lysate was incubated at 4° C. under rotary agitation for 1 h. Lysate was centrifuged at 14,000×g for 10 min at 4° C. Supernatant was transferred to a new tube and an aliquot was taken as the input. […] For Western blots, 10 μg/mL Chicken Anti-FLAG (Aves labs ET-DY100) and IgY control (R&D Systems AB-101-C) antibodies were biotinylated (Thermo Fisher Scientific 90407) and added to the respective conditions. Lysates with antibodies were incubated at 4° C. under rotary agitation overnight. For each mL of lysate, 50 μL of Pierce Protein A/G Magnetic Beads (Mass spectrometry; Thermo Fisher Scientific 88803) or Pierce Streptavidin Magnetic Beads (Western blot; Thermo Fisher Scientific 88817) was washed twice with lysis buffer. Lysates with antibodies were added to the beads and incubated at 4° C. under rotary agitation for 4 h. Beads were washed with lysis buffer 3 times and resuspended in lysis buffer for storage.\n(§2) Magnetic beads were resuspended in 100 mM Tris pH 7.8, reduced, alkylated and digested with trypsin at 37° ° C. overnight. This solution was subjected to solid phase extraction to concentrate the peptides and remove unwanted reagents followed by injection onto a Shimadzu HPLC with fraction collector. Eight fractions were collected and after concentration were injected on a Waters NanoAcquity HPLC equipped with a self-packed Aeris 3 μm C18 analytical column 0.075 mm by 20 cm, (Phenomenex). Peptides were eluted using standard reverse-phase gradients. The effluent from the column was analyzed using a Thermo Orbitrap Elite mass spectrometer (nanospray configuration) operated in a data dependent manner for 54 minutes. The resulting fragmentation spectra were correlated against the known database using Proteome Discover 1.4 (Thermo Fisher Scientific)."}, "[2]": {"target": "T1, HNRNPU (UniProt Q00839 2-825)", "T1 construct": "also called NP_114032.2", "T1 sequence (Q00839 2-825 limits assumed)": "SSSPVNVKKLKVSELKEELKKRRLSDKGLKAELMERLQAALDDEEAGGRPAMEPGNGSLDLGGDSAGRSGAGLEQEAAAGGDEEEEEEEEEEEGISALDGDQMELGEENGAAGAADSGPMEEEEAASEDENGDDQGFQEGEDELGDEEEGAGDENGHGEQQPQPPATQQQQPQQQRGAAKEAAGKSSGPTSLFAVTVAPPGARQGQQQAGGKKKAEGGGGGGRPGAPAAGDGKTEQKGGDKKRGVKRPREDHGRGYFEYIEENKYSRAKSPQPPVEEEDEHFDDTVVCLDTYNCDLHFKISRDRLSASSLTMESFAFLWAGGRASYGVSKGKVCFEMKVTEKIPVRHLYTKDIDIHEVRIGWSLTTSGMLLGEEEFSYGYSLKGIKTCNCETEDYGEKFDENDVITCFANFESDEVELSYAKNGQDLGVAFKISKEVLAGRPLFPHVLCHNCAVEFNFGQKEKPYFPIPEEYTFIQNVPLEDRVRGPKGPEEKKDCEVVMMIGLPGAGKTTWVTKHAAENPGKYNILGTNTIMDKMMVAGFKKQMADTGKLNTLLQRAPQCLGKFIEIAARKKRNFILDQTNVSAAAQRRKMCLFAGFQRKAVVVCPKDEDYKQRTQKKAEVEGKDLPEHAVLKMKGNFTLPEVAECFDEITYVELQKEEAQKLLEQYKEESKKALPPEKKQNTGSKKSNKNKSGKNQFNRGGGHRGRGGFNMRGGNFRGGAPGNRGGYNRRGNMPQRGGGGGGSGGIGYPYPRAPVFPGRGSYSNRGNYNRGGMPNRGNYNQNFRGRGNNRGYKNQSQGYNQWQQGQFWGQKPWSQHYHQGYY", "description": "as §1, §2"}, "[3]": {"target": "T2, NCCRP1 (UniProt Q6ZVX7 1-275)", "T2 construct": "also called NP_001001414.1", "T2 sequence (looked up)": "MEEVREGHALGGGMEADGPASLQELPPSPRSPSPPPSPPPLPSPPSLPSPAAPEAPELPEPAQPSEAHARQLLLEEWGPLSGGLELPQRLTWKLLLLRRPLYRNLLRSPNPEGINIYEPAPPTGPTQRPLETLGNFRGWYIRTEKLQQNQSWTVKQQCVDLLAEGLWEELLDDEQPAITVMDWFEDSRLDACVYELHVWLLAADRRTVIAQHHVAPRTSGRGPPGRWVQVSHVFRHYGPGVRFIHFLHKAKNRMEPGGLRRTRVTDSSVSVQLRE", "description": "as §1, §2"}, "[4]": {"target": "RPL37A (UniProt P61513 1-92)", "description": "as §1, §2"}, "[5]": {"target": "T3, ARG1 (UniProt P05089 1-322)", "T3 construct": "also called NP_000036.2 (+1)", "T3 sequence (looked up)": "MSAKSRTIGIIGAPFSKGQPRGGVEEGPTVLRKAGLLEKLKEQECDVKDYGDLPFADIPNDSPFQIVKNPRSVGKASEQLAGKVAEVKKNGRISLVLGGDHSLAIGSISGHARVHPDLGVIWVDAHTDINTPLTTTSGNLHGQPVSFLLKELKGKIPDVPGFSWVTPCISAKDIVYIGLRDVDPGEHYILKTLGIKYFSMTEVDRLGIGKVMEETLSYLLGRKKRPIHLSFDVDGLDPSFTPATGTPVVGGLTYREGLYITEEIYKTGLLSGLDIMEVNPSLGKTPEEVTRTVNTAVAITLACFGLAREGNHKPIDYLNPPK", "description": "as §1, §2"}, "[6]": {"target": "RPS23 (UniProt P62266 2-143)", "description": "as §1, §2"}, "[7]": {"target": "RPS19 (UniProt P39019 2-145)", "description": "as §1, §2"}, "[8]": {"target": "T4, DDX20 (UniProt Q9UHI6 1-824)", "T4 construct": "also called NP_009135.4", "T4 sequence (looked up)": "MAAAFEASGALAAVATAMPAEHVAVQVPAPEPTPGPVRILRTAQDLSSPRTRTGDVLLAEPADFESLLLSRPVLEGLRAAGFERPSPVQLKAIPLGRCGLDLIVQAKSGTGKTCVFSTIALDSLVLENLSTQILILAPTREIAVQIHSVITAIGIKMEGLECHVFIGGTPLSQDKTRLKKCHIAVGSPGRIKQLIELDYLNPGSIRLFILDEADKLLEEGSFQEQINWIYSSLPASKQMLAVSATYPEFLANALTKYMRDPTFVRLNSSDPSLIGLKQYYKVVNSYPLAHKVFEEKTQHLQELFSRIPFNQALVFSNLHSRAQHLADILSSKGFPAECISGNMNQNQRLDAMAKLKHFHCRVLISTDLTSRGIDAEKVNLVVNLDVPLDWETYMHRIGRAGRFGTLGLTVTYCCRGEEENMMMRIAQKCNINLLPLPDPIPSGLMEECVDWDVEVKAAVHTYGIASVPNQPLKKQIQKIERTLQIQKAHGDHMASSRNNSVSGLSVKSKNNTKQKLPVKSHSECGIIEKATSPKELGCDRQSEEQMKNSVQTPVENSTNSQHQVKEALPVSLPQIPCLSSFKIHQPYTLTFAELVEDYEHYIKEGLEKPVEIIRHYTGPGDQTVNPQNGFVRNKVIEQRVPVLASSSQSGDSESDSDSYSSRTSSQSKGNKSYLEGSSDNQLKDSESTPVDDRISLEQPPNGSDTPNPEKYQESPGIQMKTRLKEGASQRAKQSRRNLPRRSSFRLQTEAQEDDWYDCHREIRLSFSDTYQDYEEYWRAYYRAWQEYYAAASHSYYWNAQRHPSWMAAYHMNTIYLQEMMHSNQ", "description": "as §1, §2"}, "[9]": {"target": "RPS16 (UniProt P62249 2-146)", "description": "as §1, §2"}, "[10]": {"target": "RPS8 (UniProt P62241 2-208)", "description": "as §1, §2"}}}
{"binder": "N-terminal FLAG tagged B3GNT2 (enzyme, human, UniProt Q9NY97 1-397, looked up, Bait of the co-IP; pulled down with mouse anti-FLAG from cell lysate; also called N-FLAG B3GNT2; N-term FLAG; not shown: FLAG tag at the N-terminus) MSVGRRRIKLLGILMMANVFIYFIMEVSKSSSQEKNGKGEVIIPKEKFWKISTPPEAYWNREQEKLNRQYNPILSMLTNQTGEAGRLSNISHLNYCEPDLRVTSVVTGFNNLPDRFKDFLLYLRCRNYSLLIDQPDKCAKKPFLLLAIKSLTPHFARRQAIRESWGQESNAGNQTVVRVFLLGQTPPEDNHPDLSDMLKFESEKHQDILMWNYRDTFFNLSLKEVLFLRWVSTSCPDTEFVFKGDDDVFVNTHHILNYLNSLSKTKAKDLFIGDVIHNAGPHRDKKLKYYIPEVVYSGLYPPYAGGGGFLYSGHLALRLYHITDQVHLYPIDDVYTGMCLQKLGLVPEKHKGFRTFDIEEKNKNNICSYVDLMLVHSRKPQEMIDIWSQLQSAHLKC", "values": [{"measurement": "co-IP mass spectrometry count", "setting": "[1]", "result": 0}, {"measurement": "co-IP mass spectrometry count", "setting": "[2]", "result": 0}, {"measurement": "co-IP mass spectrometry count", "setting": "[3]", "result": 4}, {"measurement": "co-IP mass spectrometry count", "setting": "[4]", "result": 6}, {"measurement": "co-IP mass spectrometry count", "setting": "[5]", "result": 8}, {"measurement": "co-IP mass spectrometry count", "setting": "[6]", "result": 9}, {"measurement": "co-IP mass spectrometry count", "setting": "[7]", "result": 5}, {"measurement": "co-IP mass spectrometry count", "setting": "[8]", "result": 0}, {"measurement": "co-IP mass spectrometry count", "setting": "[9]", "result": 9}, {"measurement": "co-IP mass spectrometry count", "setting": "[10]", "result": 6}]}
